How the values were obtained:
[1] = GDH activity measurement (PMS/DCIP, absorbance at 600 nm); assay type: biochemical; details: purified enzymes / commercial GOD
Experimental: Specifically, the activity of the flavin-binding GDH is measured in the following manner, according to the invention. A mixture of 1.79 mL of 100 mM phosphate buffer (pH 7.0), 0.08 mL of a 1.25 M D-glucose solution and 0.01 mL of a 20 mM DCIP solution is warmed at 37° C. for 5 minutes. Next, 0.02 mL of a 20 mM PMS solution and 0.1 mL of an enzyme sample solution are added, and reaction is initiated. The absorbance is measured at the start of the reaction and periodically thereafter, the reduction in absorbance at 600 nm per minute (ΔA600) as the enzyme reaction proceeds is determined, and the flavin-binding GDH activity is calculated by the following formula. […]
The value of 2.0 in the formula is the liquid volume (mL) of reaction reagent+enzyme reagent, 16.3 is the millimolar molecular absorption coefficient (cm^2/μmol) under the activity measuring conditions, 0.1 is the liquid volume (mL) of the enzyme solution, 1.0 is the optical path length (cm) of the cell, ΔA600blank is the reduction in absorbance at 600 nm per minute, when the reaction is initiated by addition of 10 mM acetate buffer instead of the enzyme sample solution, and df represents the degree of dilution.
Each solution was combined by the procedure described below, and the absorbance was measured to determine the GDH activity of the crude enzyme solution. […]

[2] = GOD activity measurement (4-AA/TOOS/POD, absorbance at 555 nm); assay type: biochemical; details: 131 mM D-glucose, 37° C.
Experimental: The GDH activity was measured according to the method of Example 1, and GOD activity was measured by the following method using 4-aminoantipyrine (4-AA) and N-ethyl-N-(2-hydroxy-3-sulfopropyl)-3-methylaniline (TOOS). After mixing 30.0 mL of 100 mM phosphate buffer (pH 7.0), 6.0 mL of an 833 mM D-glucose solution, 0.3 mL of a 25 mM 4-AA solution, 0.3 mL of a 40 mM TOOS solution and 0.3 mL of a 500 U/mL, POD solution, 3.0 mL of the mixture was transferred to a test tube and warmed at 37° C. for 5 minutes, after which 0.1 mL of enzyme sample solution was added and reaction was initiated. The increase in absorbance at 555 nm per minute (ΔA555) was measured as the enzyme reaction proceeded, and the GOD activity was calculated by the formula shown below. […]
The value of 3.1 in the formula is the liquid volume (mL) of reaction reagents+enzyme reagent, 32.8 is the millimolar molecular absorption coefficient (cm^2/μmol) under the activity measuring conditions, 0.5 is the number of molecules of quinoneimine dye produced when 1 molecule of H2O2 is reduced, 0.1 is the liquid volume (mL) of the enzyme solution, 1.0 is the optical path length (cm) of the cell, ΔA555blank is the increase in absorbance at 555 nm per minute, when the reaction is initiated by addition of 10 mM acetate buffer instead of the enzyme sample solution, and df represents the degree of dilution.

B1: Aspergillus niger-derived GOD: commercially available glucose oxidase derived from Aspergillus niger (GOD, product of Biozyme Laboratories) (protein, UniProt P13006 17-605, looked up)
Glucose oxidase: LPHYIRSNGIEASLLTDPKDVSGRTVDYIIAGGGLTGLTTAARLTENPNISVLVIESGSYESDRGPIIEDLNAYGDIFGSSVDHAYETVELATNNQTALIRSGNGLGGSTLVNGGTWTRPHKAQVDSWETVFGNEGWNWDNVAAYSLQAERARAPNAKQIAAGHYFNASCHGVNGTVHAGPRDTGDDYSPIVKALMSAVEDRGVPTKKDFGCGDPHGVSMFPNTLHEDQVRSDAAREWLLPNYQRPNLQVLTGQYVGKVLLSQNGTTPRAVGVEFGTHKGNTHNVYAKHEVLLAAGSAVSPTILEYSGIGMKSILEPLGIDTVVDLPVGLNLQDQTTATVRSRITSAGAGQGQAAWFATFNETFGDYSEKAHELLNTKLEQWAEEAVARGGFHNTTALLIQYENYRDWIVNHNVAYSELFLDTAGVASFDVWDLLPFTRGYVHILDKDPYLHHFAYDPQYFLNELDLLGQAAATQLARNISNSGAMQTYFAGETIPGDNLAYDADLSAWTEYIPYHFRPNYHGVGTCSMMPKEMGGVVDNAARVYGVQGLRVIDGSIPPTQMSSHVMTVFYAMALKISDAILEDYASMQ
GDH activity [1]: 3.50 U/mL | GOD activity [2]: 9.38 U/mL
